Reference: paper PMC7686228

Assays:
[1] = molecular target: parDMFase large subunit expressed and purified without the small subunit (Paracoccus sp. strain DMF); experiment: SEC; large subunit purified without the small subunit; data not shown
[2] = molecular target: parDMFase α2β2 complex (the 'dimer', 200 kDa) (Paracoccus sp. strain DMF); experiment: cryo-EM structure; purified parDMFase on ice; data set with 200 mM NaCl, tetramer (α2β2)2 reconstruction at 2.8 Å (initial mixed data set: 3.8 Å); step: dimer of α2β2 dimers

stoichiometry N [1]	stoichiometry N [2]	Substance
2	–	parDMFase large subunit expressed and purified without the small subunit (enzyme)
–	2	parDMFase α2β2 complex (the 'dimer', 200 kDa)
